# Assay results reported in the RNAGym collection of RNA variant scans (doi:10.1073/pnas.2313332121).
# This sample holds only a part of the variants without activity.
# B1: TPR 5TU (parent)
# chain: GGAUCUUCUCGAUCUAACAAAAAAGACAAAUCUGCCACAAAGCUUGAGAGCAUCUUCGGAUGCAGAGGCGGCAGCCUUCGGUGGCGCGAUAGCGCCAACGUUCUCAACUAUGACACGCAAAACGCGUGCUCCGUUGAAUGGAGUUUAUCAUG
# Variants of: B1
# Test: polymerase ribozyme fitness, log enrichment relative to wild type (log ratio); higher = more active; in vitro selection for triplet polymerase activity
# Summary of the method: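 One round of in vitro selection, in triplicate, was applied to PCR-built, transcribed mutant libraries of each subunit of a heterodimeric triplet polymerase ribozyme. The steps were annealing with a biotinylated primer, partner subunit and triplets, incubation frozen at −7 °C, gel excision of extended constructs, streptavidin-bead capture and RT-PCR. Fitness is the logarithm, base 2, of genotype enrichment over wild-type enrichment from inverse-variance-weighted replicate averages of Illumina-sequenced inputs and outputs, keeping genotypes with ≥10 input reads and ≥1 read per output.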
row,Variant,polymerase ribozyme fitness (log ratio)
1,GGAUCUUCUCGAUCUAACAAAAAAGACAAAACUGCCACAAAGCUUGAGAGCAUCUUCGGAUGCAGAGGCGGCAGCCUUCGGUGACGCGAUAGCGCCAACAUUCUCAAGUAUGACACGCAAAAGGCGUGCUCCGUUGAAUGGAGUUUAUCAUG,≤ -4.2
2,GGAUCUUCUCGAUCUAACAAAAAAGACAAACCUGCCACCAAGCUUGAGAGCAUUUUCGGAUGCAGAGGCGGCGGCCUUCGGUGGCGCGAGAGCGCCAACGUUCUCAACUAUGACACGCAAAACACGUGCUCCGUUGAAUGGAGUUUAUCAUG,≤ -4.2
3,GGAUCUUCUCGAUCUAACAAAAAAGACAAAACUGCCACAAAGCUAGCGAGCAUCUUCGGAUGCAGAGGCGGCAGCCUUCGGUGGCGCGAUAGUGCCAAGGUUCUCAACUAUGACACGCAAAACGCGUGCUCCGUAGAAUGGAGUUUAUCAUG,≤ -4.2
4,GGAUCUUCUCGAUCUAACAAAAAAGACAAAACUGCCACAAAGCUUGAGAGCAUCUUCGGAUGCAGAGGCGGCAGCCUUCGGUGGCUCGAUAGCGCCAACGUUCUCAACUAUGACACGCAAAACGCGUGCUCCGUUGAAUGGAGUUUAUCAUG,-0.886
5,GGAUCUUCUCGAUCUAACAAAAAAGACAAAACUGCCACAAAGCUUGAGAGCAUCAUCGGAUGCAGAGGCGGCAGCCUUCGGUGGCGCGAUAGCGCCAACGUUCUCAACUAUGACACGCAAAACGCGUGCUCCGUUGAAUGGAGUUUGUCAUG,-0.55
6,GGAUCUUCUCGAUCUAACAAAAAAGACAAAACUGCCACAAAGCUUGAGAGCAUCUUCGGAUGCAUAGGCGGCAGCCUUCGGUGGCGCGAUAGGGCCAACGUUCUCAACUAUGACACGCAAAACGCGUGCUCCGUCGAAUGGAGUUUAUCAUG,≤ -4.2
7,GGAUCUUCUCGAUCUAACAAAAAAGACAAAACUGCCACAAAGCUUGAGAGCAUCUUCGGAUGCAGAGGCGGCAGCCUUCGGUGGCACGAUAGCGCCAACGUUCUCAACUAUGACACGCAAAACGCGUGCUCCGCUGAAUGGAGUUUAUCAUG,-0.431
8,GGAUCUUCUCGAUCUAACAAAAAAGACAAAACUGCCACAAAGCUUGAGACCAUCUUCGGAUGCAGAGGCGGCAGCCUUCGGUGGUGCGAUAGCGCCAACGUUCUCAACUAUGACACGCAAAACGCGUGCUCCGUUGAAUGGAGUUUAUCAUG,-3.83
9,GGAUCUUCUCGAUCUAACAAAAAAGACAAAACUGCCACAAAGCUUGAGAGCAUCUUCCGAUGCAGAGGCGGCAGACUUCGGUGGCGCGAUAGCGCCAACGUUUUCAACAGUGACACGCAAAACGCGUGCUCCGUUGAAUGGAGUUUAUCAUG,≤ -4.2
10,GGAUCUUCUCGAUCUAACAAAAAAGACAAAACUGCCACAAAGCUUGAGAGCAACUUCGGAUGCAGAGGCGGCAGCCUUCGGUGGCGCGAUAGCGUCAACGUUCUCAACUAUGACACGCGAAACGCGUGCUCCGUUGAAUGGAGUUUAUCAUG,-0.866
11,GGAUCUUCUCGAUCUAACAAAAAAGACAAAACUGCCACAAAGCUUGAGAGCAACUUCGGAUGCAGAGUCGGCAGCCUUCGGUGGCGCGAUAGCGACAACGUUCUCAACUAUGACACGCAAAACGCGUGCUCCGUUGAAUGGAGUUUAUGAUG,≤ -4.2
12,GGAUCUUCUCGAUCUAACAAAAAAGACAAAACUGCCACAAAGCUUGAGAGCAUCUUCGGAUGCAGAGGCGGCAGCCUUCGGUGGCGCGAUAGCGCCAACGUUCUCAACUAUGACACGCAAAACGCGUGCUCCGUUGAAUGGAGAUUAUCAUG,0.137
13,GGAUCUUCUCGAUCUAACAAAAAAGACAAAACUGCCACAAAGCUUGAGAGCAUCAUCGGAUGCAGAGGCGGCAGCCUUCGGUGGCGCGAUAGCGCCUACGUUCUCAACUAUGACACGCAAAACGCGUGCUCCGUUGAAUGGAGUGUAUCAUG,-0.219
14,GGAUCUUCUCGAUCUAACAAAAAAGACAAAACUGCCACAAAGCUUGAGAGCAUCUACGGAUGCAGAGGCGGCAGCCUUCGGUGGCGCGAUAGCGCCAACGUUCUCAACUAUGACACGCAAAACGCGCGCUCCGUUGAAUGGAGUUUAUCAUG,-1.37
15,GGAUCUUCUCGAUCUAACAAAAAAGACAAAACUGCCACAAAGCUUGAGAGCAUCUUCCGAAGCAGAGGCGGCAGCCUUCGGUGGCGGGAUAGCGCUAAUGUUCUCAACUAUGAGACGCAAAACGCGUGCUCCGUUGAAUGGAGUUUAUCGUG,≤ -4.2
16,GGAUCUUCUCGAUCUAACAAAAAAGACAAAACUGCCACAAAGCUAGAGAGCAUCGUCGGAUGCAGAGGCGGCAGCCUUCGGUGGUGCGAUAGCGGCAACGUUCUCAACUAUGACACGCAGAACGCGUGCUCCGUUGAAUGGUGUUUAUCAUG,-4.06
17,GGAUCUUCUCGAUCUAACAAAAAAGACAAAACUGCCACAAAGCAUGAGAGCAUCUUCGGAUGCAGAGACGGCAGCCUUCGAUGGCGCGAUAGCGCCAACGUUCGCAACUAUGACACGCAAAACGAGUGCUCCGUUGAAUGGAGUUUAUCAUG,≤ -4.2
18,GGAUCUUCUCGAUCUAACAAAAAAGACAAAACUGCCACAAAGCUUGAGAGCAUCUUCGGAUGCAGAGGCGGCAGCCUUCGGUGGCGCGAUAGCACCAACGUUCUCAACUAUGACACGCAAAACGCGUGCUCCGUUGAAUGGAGUUUAUCAUG,-0.349
19,GGAUCUUCUCGAUCUAACAAAAAAGACAAAACUGCCACAAAGCUUGAGAGCAUCGUCGGAUGCAGAGGCGGCAGCCUUCGGUGGCGCGAUAGGGCCAACGUUCUCAACUCUGACUCGCAAAAGGCGUGCUCCGUUGAAUGGAGUUUAUCAUG,≤ -4.2
